This note sets out measurements from a protein production outcome set (Wang et al. 2014).

The series in a line: label from the status in PepcDB records.
Consider “MLINSEIISLSGSMYEDRSYQNEAIDFIASKLANYPGVALEAPTGSGKTMMALLGSLKYAYNGHLKILYLVRTNSQEEQVIRELRTISKNRKIRALPMQGRINLCILYKTADDLKEATAESLSKFCNSRKRQVMEGHQEACPYYTIKVRSKETKDFLFENLPTAEEFYEYAFTNNLCPYESIKASLSDADIVVAPYMYFLNKTVADRFLSHWGVSREQLIIVLDEAHNLPDIGRSLGSFRISIESLNRSEKEAQSFGDPELDRGVHVTDFIEMIRSTLERTIKERVKEDDVRIRFQEFKEYLMIMNKKSEKSIRDLNNYLYLFGEYVENEKEKAGKVPVSYCSSLAQRLEAMMDEDDAMYAAILSKSESGYIQASCLDPSSILSSLKESKTIHMSGTLEPFEFYSDVTGFDIPFRRIENVFPIENRFVSYYEGVSTKYDTLDENEIRKLASIIENIVNGVKRNTIVYFPSYAVMDKVIGSGLDFDFLQEKKNLDQTEFYDVVKKFRNGGKPLLAVSGGRLSEGMNFPGRELELILIAGIPFPRPDATNRALYDYYEMKYKKGWEYAVLAPAIIKIRQEIGRLIRGKDDHGACVILDKRAKQFRRFIPDLVKTDDPVNDINTFFSNFK”, for which the protein production result is on record as “failed”.
Consider “MLIYEGHIDKLIRRGQEKGLDIFNLIRAAVINPVEHYGLNVGLLREGDPADFITVDDLKSFNVLSTFIDGECVYENGKVLFPMKLEHHHHHH”, for which the protein production result is “not failed”.
For the sequence “MLIYNLAIHSYLGCDSLALLPKANTLSKEKNINNADDTIKDQILASIDSFIYTKDLSGKYTYANQAVLDLFEKNLADVIGFDDTHFFDLALSKQLKANDRMVMDQVIRIENEESNFIRAKNETRIFKVVKKPLFDHLGNVNGICGISTDITVEKQLQEQVNEQSYLLETMLNNIDAHIYVKDCERTFLYVNNRVAELFGDKAENIIGKKDTDILPKEIAEHFYQSDKQVFETNQKQVIEETTHGENGDNCHYISTKVPFDRPDKLPALIGFSTDVTELFKLKEEFKLLANTDPLTNLYNRRFFIEQAEKEYQRAKRYSLSMTLISIDIDHFKSINDQFGHPAGDQVLIEIAKQLKASLRQTDILARIGGEEFSILLPETSAMSAMTFAERIKEEQSRLIITGDWQGEINLSVSIGVSSLIASDKAFDVLFSRADKALYQAKNTGRNTVCYL”, the protein production result is “failed”.
Take “MLKELFVNLTILITFNYLFTHLFKERLVHKKDSISFQAVKGLACGLLGVILMVFGFTYQHSIIDLRNIPIMIAALYGGWVSTATALAMITAGRLLITMNTSALYSVIIICIAAIPSLIVSRRKKVQLKHAFYLLIITNSLISFSFYFLIDLHSYELHLYFWIISIAGGMLSLYIIDHETNAHLLFKQYKFQAHFDFLTGVYNRRKFEETTKALYQQAADTPHFQFALIYMDIDHFKTINDQYGHHEGDQVLKELGLRLKQTIRNTDPAARIGGEEFAVLLPNCSLDKAARIAERIRSTVSDAPIVLTNGDELSVTISLGAAHYPNNTEQPGSLPILADQMLYKAKETGRNRVCFSEKKE”: the protein production entry is given as “failed”.
Turning to “MLKIYVVDNGGQWTHREWRVLRELGVDTKIVPNDIDSSELDGLDGLVLSGGAPNIDEELDKLGSVGKYIDDHNYPILGICVGAQFIALHFGASVVKAKHPEFGKTKVSVMHSENIFGGLPSEITVWENHNDEIINLPDDFTLAASSATCQVQGFYHKTRPIYATQFHPEVEHTQYGRDIFRNFIGICASYREIQKENFQH”, the protein production result is “not failed”.
With “MLKKITCYTVLYIFILLNQPIQAQTYVIPDANFKNYLALNIPYVLNSNQELIISNAKIFTGTINCVGMNIEDLSGLQYFYKLTQLNCNSNQLTFLPSLDSLKQLQHMWVYNNKLTSIPSVNQLTNLQTLNVKNNQLTNLPSLTGMTALKSLDCSSNKLTALPDLSTLLNLEEMYCYINFITNIPSVSNLLHLKIFNIENNAIALLPDISQNTKLEILQFDLNQIETIPPLTTLTALKQLIFAHNKISTLPDLSANTALFIITGDNNQLTHIPDLSGFDNLTHVELSHNQLTFEDILPSSKHPQFSTVFNIQPQDSLNVNQPVSAVKGSTITLPLQFDLAVSGSTYNWYKNNIYLSSTTIPVLTLSNITEMNAGRYTCIITNNTSRLTGITLHARSYSILVEPCIKFSYINYEITANDCSKGAAIQIDHTQISALNTPLTYALHPLNNQSSITSASAVLNDVMPGRYSLTISDVNNCSVELQNYIFIPVPAGCMDSFTPNGDGLEDTYLIDKPGYTKIYNKNGTLIRTLNTPAAWDGSDESGKLCPMGYYIIIIDGKEKTGVVLIN” the entry was “failed”; with “MLKLAQAEEAEAKRGKLKIFLGYAAGVGKTYAMLQAARERRHEGRDVVAAYVESHGRPETDALLEGLEILPAARIEYQGVMLPELDIDGVLARRPQLALVDELAHTNAPGSRHEKRWQDVEELLAAGIDVFTTVNVQHFESLNDVVAQITGIAVRETVPDRLLDLAAEIRLVDIPPEDLLQRLREGKVYVPEQAAFAAEKFFRAGNLIALRELSLRRAAVRVDEEMRAYMEARAIPGPWPAAERLLVSISGSPFSERLIRTTRRLADELKAPWFTVYVETPGNGRHEQENRKRVWKDLRLAESLGAQVATVTATSVAEALIDYARRHNVTRIVVGKPAKPRWREFLRLPLVDRIIRLSGAIDVHVVSYEPAEAGKGPVLPVRRGPISFSGYLASLALVVAASLACLLLRPFLAPTNMVMIYLLAVVLAALRLGLKPAILTAFLGVLAFDFFFIPPHLTFAVADTQYLITFVALFTVGVVISTLVSTVRERAEAVREREEQTASLYYLSRDLAAAADIETLVAAVIRNIGETLFARAAVLLPEGDRLRVAAASKGLKPDVKEMAVADWAFRNRQTAGQGTETLASAGFLYLPLQTSGSVLGVLGVRLKNDADYRSTQVRRMLDAFTSQTAMALERVQLSRQAEQAQILQARENLERALLNSISHDLRTPLVAITGALDTLRDKVHTLADESRLELLDTAWEEAERLNRFVGNLLDMTRLESGAIKLKRELSDVQDLIGCALAALERRIGERGIDVRLAPDLPLVRIDMVLMTQVLVNLLDNALKYSPPDSGVEITARVDGGRLRIEMADRGPGIPEQDLKRVFDKFYRIAVPEGAQGTGLGLSICKGIVEAHGGSIRAENRTGGGLRVIVTLPLAGGAKEGVSHGP”, “failed”; with “MLKNLRIRKFEPEEEYVHFTYSIKNSEREKSKELIKEYRTLLQKAIDYLWNLTKIQVRKKNGSYKITLPKKKEVYKPLREELEKINHLASHYVDKAINDAFSILKSWRKRAIKGRASIEKPTLKKAYVRIKTTLRKVVGESVRITVRPYEYITFSWSKSWFSRRVRELELGEPIIKEEKVYLPFRYKLPWVTPVNFLAIDSNLYTLDAYDGEKFVTISLKQLYSLKYSMEVKRAKVQSFASKHTKRGRELMRKYSHRERNRVLDFVHKFVNTLLDLYPMTFFAVEKLNKESMFKDANGSLSRKISRTVWRSIHRVLKYKAPLYGSFVKEVNPHLTSRSCPRCGFVSRKVGKTFECERCGFKLDRQLNASLNIYLKMCGFPHIRDIPRVWVGVIPLMGRRGMNVRDFGEAQGLRIDIKYHEILLEHHHHHH”, “failed”.
Next, “MLKNLRLKSFQPEEEYVHFTYSIKNDKREESKELIKEYTTLLQKAIDYLWSLTKIQVRKNGNYKITLPKKKEVYKPLRDELEKINHLASHYVDKAINDAFSILKSWRKRAIKGRASIEKPRVKKAYVRIKTTLRKVVGESVRITVRPYEYITFSWSKSWFSRRVRELELGEPIIKEEKVYLPFRYKLPWATPLNFLAIDSNLYTLDAYDGEKFVTISLKQLYSLKYSMEVKRAKVQSFASKHTKRGRELLRKYSHRERNRVLDFVHKFVNALLDLYPMTFFAVEKLNKESMFVDANDSLSRKISRTVWRSIHRVLKYKAPLYGSFVKEVNPRFTSRSCPRCGFVSRKVGKTFECERCGFKLDRQLNASLNIYLKMCGFPHIRDIARVWVGVIPLMGRRGMNGFPRDFGEAQGLRIDIKYHEIP”: “failed”.
With “MLKPMYYEFFFIFPKERELFESFLLDATHLALEESSLENLKAFDDKETIGFISQSNWHYFATHDPLKKDLKENLKEKPPHLKNFVILRSQKDLNNSLIPALEAFCLNLKQNLQSEFDFFYLSRNLASKDWLEAYKQAILPVQCTKFYIHPSWHQKPSHVVTNDCIMIDPALAFGSGHHESTSMCLELLSDIDLKRKNALDVGCGSGILSIALKKQGVSALVACDTDSLAVEETLKNFSLNQIPLLVQDKVIYGSTQKIEGRFDVIVANLVADVIKSLYSEFVRLCNHTLILSGILETHLNSVLQIYYNGFEVLEQRQRNEWVALKLLKKQPIN” the entry was “failed”; with “MLKRASFVEVDTASLRHNFSAVKSIVPKDACVMAVVKANAYGAGAIKASEIFLQEGANYLGVATLDEALELRSHFSKTPILILGYSPNANASMLVDNDLSAMIFSLEQAEVFSQMALKSQKRLKVHIKIDTGMHRLGLEPNFKSIETIKKIRALKGLEIEGIFTHLSNADAKIKTHAKNQMKAFNAFLEQLLDQKIEFQYRHAYNSAGILSLCNGNENRLLNLYRPGIMLYGFYPSNGMKESCPTILKNVISLKAQIVQIRSVKKGEFIGYGEHFYTNEETLVGVLALGYADGLMRALGNRIQVAINNQLAPLIGKVCMDQCFVKLNNIQAKEGDEVILFGDKSAKANDASEIXALLNTIAYETISTLSKRLERVYI”, “failed”; with “MLKTSALAPCGKPMLIWPSQTSARRHGFSEASYCLWRSKFGGMSMPDAKRLKDLEAENTRLKKLLAEQVFQNDLIKDALQKMVSAPARRALVREWIAGGASERCALAAIGMSASALRYRPREDRNVELRERILALAHRHRRYGVGMISLKLRQEGRLVNYKRVERLYCEQQLQVRRRKRKKVPLGERAPLLRPTKANPVWSMDVVFDRTAEGRAIKCLVIVDDATHEAVAIDVERAISGHGVVRVLDRLAHSRGLPKMIRTDNGKEFCGKAMVAWAHANRVQLRQIQPGKPNQNAYVESFNGRLRDECLNKHGFPTLLHARTEIERWRREYNEHRPKKTIGGMTPAAYAQQLANSDIINPGL”, “failed”.
As to “MLKTTKKSLLVFMGVFFLIFGVDQAIKYAILEGFRYESLMIDIVLVFNKGVAFSLLSFLEGGLKYLQILLILGLFIFLMRQRELFKNHAIEFGMVFGAGVSNVLDRFVHGGVVDYVYYHYGFDFAIFNFADVMIDVGVGVLLLKQFFFKQKQNKIKA”, the protein production result was “failed”.
“MLKTVHQKAGRHTRPVRAWLKLLWQRIDEDNMTTLAGNLAYVSLLSLVPLIAVVFALFAAFPMFSDVSIQLRHFIFANFMPATGDVIQRYIEQFVANSNKMTAVGACGLIVTALLLMYAIDSALNTIWRSKRTRPKVYSFAVYWMILTLGPLLAGASLAISSYLLSLRWASDLNTVIDNVLRILPLLLSWISFWLLYSIVPTTRVPNRDALVGAFVAALLFEAGKKGFALYITMFPSYQLIYGVLAVIPILFVWVYWTWCIVLLGAEITVTLGEYRKLKQAAEQEEADQP”: the protein production entry is given as “failed”.
Next, “MLKTVKLYARKAWNWLTSMRTALALLFLLAIAAIPGALLPQRSLNESNVIEYIENNGKLAEFYDKIQLFDVFSSTWFTAIYVLLLISLVGCILPRSWEHYKAMRAPVVRAPRNLERLAHNGEGLVEKREEEVEKDARKLLKGWKITEYSAEEDRAGVRSIAAEKGYTRELFNLIFHLGIVGMIVTAGLGRLFYYEGHVIVVTDGEQNQQNSVFCNTATANYDSFRAGANFDGTGLTTFCFEAHDFSADYLANGQAEMFRSNISYAVGDDIQNDPETWEDYELRVNHPLRIEGDRVYLQGHGFAPTFTVTWPNGETRTQTVQWRPDDPTFFLSSGVVRFDPPAGMYPDLYERRQNQLAIQGLFAPTAEWEGDNNELLTSSYPAMRDPAVAIDIYRGDNGLDTGIGQSLFSLDSSLMHSGVLQKIERVNLQIGDTVTLDDGTTVSFDGASEFANYQISRDPTQNWVLVTTVISLVSLVGSLMIRRRRIWVRFYPQENGTTRVETGGLARTDRAGWGGEYEKFHRELLGLKEEDEDEEYFDHDD”: “failed”; “MLKVFAMEMKDAKLYGGIGAILQLVGPFVPSIGFILALVGLVLVFLAVKTISEKSGDEGIFNNYLKAFIAQILGIIIFVGIIVATIGTAILKGGMGKLANPMEFMSLIGTILLGFIILWIFYTVAGYFKKKSYENSQYTGTDMFKTAGLLFFIGAILIILGIGVLIILIAEILEIVAFFSLPETSESAPVSA”: “failed”.
